In the supplement of paper PMC9170038:

System: MS2 coat protein
Test: apparent KD of MS2 coat protein; designed switch direction (-1 OFF switch, 1 ON switch): 1; higher = weaker reporter binding
Settings: Eterna round: R98
Description: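 RNA-MaP: designed FMN/MS2 RNA switches (84 nt design region) are transcribed on-chip within common flanks and titrated with SNAP-549-labelled MS2 coat protein (about 1-3000 nM) in 100 mM Tris pH 7.5, 80 mM KCl, 4 mM MgCl2, without or with 200 uM FMN. Median apparent KD per design; activation ratio = KD,OFF / KD,ON.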

Row | Sequence | apparent KD of MS2 coat protein (input ligand: FMN 200 uM) | apparent KD of MS2 coat protein (input ligand: none)
1 | AAAACAUGAGGAUCACCCAUGUAAAGAUCGGUUAAUAAAAGUGAGGAUAUACAAAAUUUUAUAUAGUAGAAGGCACUGGGUACA [JR_SSNG3_Sub002] | 29.7 nM | 28.3 nM
2 | AAAACAUGAGGAUCACCCAUGUAAUGAUCGGUUAAUAGAAGUGAGGAUAUGCUUAAAAUAAGGUAGCAGAAGGCACUGGGUACA [JR_SSNG3_Sub041] | 31.3 nM | 28.1 nM
3 | AAAUAAAAUAUAGGAUAUGGAAACAUGAGGAUCACCCAUGUAAAAUAAGAUAAAUAAUAAUAUAACCAGAAGGAUAAAAUAUAA [LRO003_SS NG 2] | 53.3 nM | 30 nM
4 | AAGCAAACAUGAGGAUCACCCAUGUAACUGCUUUUGGCGACACAGGAUAUACAGCGACAUUGGCGGUAGAAGGGUGAUUGAAGU [Araisleen] | 51.1 nM | 22.2 nM
5 | ACCGGCACUUACAUGAGGAUCACCCAUGUGUGCAAUCGGACACAGGAUAUCCAUGGUAAGUAUCGGGAGAAGGGUGGAAAGAAA [Reustion] | 258 nM | 142 nM
6 | AGAACAUGAGGAUCACCCAUGUGAAGGUCGGCGUAUAAGGGUGAGGAUAUGCUUAAAAUAAGGAAGCAGAAGGUGCUUGGUGCG [SameState #79 NG3] | 102 nM | 137 nM
7 | AUCAAUCACAUAGGAUAUAGAAUAUUAUAUUUUUACAUGAGGAUCACCCAUGUUUUAUUGGGAUUCUAGAAGGAUGAGUAAUAA [JR_SSNG2_Sub055Nu] | 96.9 nM | 147 nM
8 | CAACAAUGGUGAGGAUAUGCAAAGGAUCACCUUGUAGAAGGCAUCAGGUAGAAGGUGCAGAGGAUCACCCUGUAAGGAUAUAUC [pwkr2 ssNG1 DX.21] | 69.9 nM | 176 nM
9 | CAUGUCCACACAGGAUAUGCUGGACUUUGUCCAGCAGAAGGGUGAACAUGAGGAUCACCCAUGUAAAGGACAUGUAUAUUUAAU [Denovo 16] | 93.3 nM | 715 nM
10 | CCUGACACUUGAGGAUAUGCUCAGGAAUACUGAGCAGAAGGCAGGGAAACCUGAGGAUCACCCAGGUAAGUCAGGAAUAAUAAA [Same State NG1 - A3C, U17G Submission 2A] | 21.9 nM | 62 nM
11 | CGCUGUAAUGCAGGAUAUGCAUUGGAUUACAAUGCAGAAGGGCGAUUACAUGAGGAUCACCCAUGUAUAAACAGUGAAGAAGAG [Hyphema mod 5] | 26.9 nM | 51.6 nM
12 | CGCUGUCGCGCAGGAUAUGCAUUGGAUUACAAUGCAGAAGGGCGAUUACAUGAGGAUCACCCAUGUGUAGACAGUGAAGAAGAG [SameState #31 NG1] | 28.4 nM | 253 nM
13 | CUAAUAUAGUGAGGAUAUGCACAGGAUCACCGUGUAGAAGGCAUCAGGUAGAAGGUGCAGAGGAUCACCCUGUAAGGAUAUACA [pwkr2 ssNG1 DX.5] | 102 nM | 385 nM
14 | CUAGCAUACCGAGGAUAUUCAUAUAAUAAAUAAACAUGAGGAUCACCCAUGUGGCGAAAGCCUAGGGAGAAGGCGGAAUGCUAU [salish99_SSNG2_r2_111] | 23.8 nM | 210 nM
15 | CUCGUUGUCACAGGAUAUGCCGCCGGACAUGAGGAUCACCCAUGUACCCGCUUGAGAAAACUGCGGUAGAAGGGUGACUUAUAA [Erriisin] | 46 nM | 110 nM
16 | GACGAAUUCUUAGGAUAUCGAGUGGAAUACACUCGAGAAGGAAGAUAUACCUGAGGAUCACCCAGGUAAAACUGGACGUCAAUA [Same State NG1 - A3C, U17G Submission 8D A68U] | 46.7 nM | 193 nM
17 | GCCAUCGUAUGAGGAUAUGGCACCGUUUCGGUGCCAGAAGGCAUGUCUUUUGACAUGAGGAUCACCCAUGUAGUUAAGAUGGCA [Pyrimidine booster 4] | 147 nM | 637 nM
18 | GCCGUAAUAGCAGGAUAUGCUCCGGUUGCUCAUACAUGAGGAUCACCCAUGUCACGUGCGGUGGUGCAGAAGGGUUGAAGCGAU [Ausaso] | 122 nM | 465 nM
